Data as given in US10251942B2, “Immunity-inducing agent” (TORAY INDUSTRIES, INC., priority 2009, dated 2019).
Where a SMILES comes first, the peptide text is derived from it.

Experiments:
[1] = test system: malignant brain tumor cell line T98G; experiment: Chromium 51 release cytotoxicity of peptide-stimulated CD8-positive T cells; assay type: cell-based, human; conditions: 10^5 T cells and 10^3 T98G cells, 4 hours
Experimental: In a 50-ml centrifuge tube, 10^5 cells of a malignant brain tumor cell line T98G, whose expression of PDS5A had been confirmed (Stein G H et al., J. Cell Physiol., 99: 43-54 (1979), purchased from ATCC), were collected, and 100 μCi of chromium 51 was added to the tube, followed by incubation at 37° C. for 2 hours. […] Thereafter, the amount of chromium 51 released from damaged tumor cells into the culture supernatant was measured, and thereby the cytotoxic activity of the CD8-positive T cells stimulated with each of the polypeptides shown in SEQ ID NOs:27 to 35 was calculated.
The cytotoxic activity was determined by, as described above, mixing 10^5 CD8-positive T cells stimulated and induced with each of the peptides of the present invention and 10^3 cells of a malignant brain tumor cell line T98G to which chromium 51 was incorporated; culturing the resultant for 4 hours; measuring the amount of chromium 51 released into the culture medium after the culturing; and calculating the cytotoxic activity of the CD8-positive T cells against T98G according to the following equation*. cytotoxic activity (%)=(Amount of chromium 51 released from T98G when CD8-positive T cells were added)/(Amount of chromium 51 released from the target cells to which 1N hydrochloric acid was added)×100. *Equation: […]

[2] = test system: epidermal squamous cell carcinoma; experiment: Anti-tumor effect of canine recombinant PDS5A protein in patient dog, epidermal squamous cell carcinoma; assay type: in vivo; conditions: 500 μg protein with Freund's incomplete adjuvant, subcutaneous near tumor, 4 times at 1-week interval; tumor about 280 mm^3 at administration
Experimental: (§1) With 500 μg (2.5 ml) of the canine recombinant PDS5A protein purified as described in Example 5 below, the same amount of Freund's incomplete adjuvant (manufactured by Wako Pure Chemical Industries, Ltd.) was mixed to prepare a therapeutic agent for cancer, and this therapeutic agent was subcutaneously administered in the vicinity of the tumor in 1 individual each of patient dogs suffering from perianal adenocarcinoma and epidermal squamous cell carcinoma a total of 4 times at 1-week interval.

perianal adenocarcinoma = experiment: Anti-tumor effect of canine recombinant PDS5A protein in patient dog, perianal adenocarcinoma; assay type: in vivo; conditions: 500 μg protein with Freund's incomplete adjuvant, subcutaneous near tumor, 4 times at 1-week interval; tumor about 370 mm^3 at administration
Experimental: as §1

mammary gland tumor = experiment: Anti-tumor effect of recombinant PDS5A protein in tumor-bearing dog, mammary gland tumor; assay type: in vivo; conditions: 500 μg protein with same amount of Freund's incomplete adjuvant, regional lymph node near tumor, 3 times at 1-week intervals; tumor about 500 mm^3 (dog-derived) or 1000 mm^3 (human-derived) at administration
Experimental: The anti-tumor effect of the recombinant protein described in Example 5 below in 3 individuals of tumor-bearing patient dogs (3 individuals having a mammary gland tumor) having a tumor mass in the epidermis was evaluated. Before administration, the antibody titer against the recombinant protein in the serum of each patient dog was measured by the method described in Example 5 (3), and, as a result, an antibody titer higher than that of a healthy dog was detected.
With 500 μg (2.5 ml) each of the recombinant PDS5A proteins (dog-derived and human-derived) purified as described above, the same amount of Freund's incomplete adjuvant (manufactured by Wako Pure Chemical Industries, Ltd.) was mixed to prepare 2 kinds of therapeutic agents for cancer, each of which was administered to a regional lymph node in the vicinity of the tumor a total of 3 times at 1-week intervals. […] On the other hand, in the negative control group to which PBS(−) was administered, the tumor volume, which had been about 800 mm^3 at the time of administration of PBS, became 1625 mm^3 on Day 21 after the administration.

Molecule: CC(C)C[C@H](NC(=O)[C@H](CCCCN)NC(=O)[C@H](Cc1ccc(O)cc1)NC(=O)[C@H](C)NC(=O)[C@H](CO)NC(=O)[C@H](CS)NC(=O)[C@H](CS)NC(=O)[C@H](CCC(N)=O)NC(=O)[C@@H](N)CC(C)C)C(=O)O [SEQ ID NO:36] (H-LQCCSAYKL-OH)
- cytotoxic activity of stimulated CD8-positive T cells against T98G [1]: no cytotoxic activity

B1: canine recombinant PDS5A protein: full-length canine PDS5A (SEQ ID NO:2) expressed in E. coli; given mixed with Freund's incomplete adjuvant (protein, listed as Canis familiaris)
chain: MDFTAQPKPATALCGVVSADGKIAYPPGVKEITDKITTDEMIKRLKMVVKTFMDMDQDSEDEKQQYLPLALHLASEFFLRNPNKDVRLLVACCLADIFRIYAPEAPYTSHDKLKDIFLFITRQLKGLEDTKSPQFNRYFYLLENLAWVKSYNICFELEDCNEIFIQLFRTLFSVINNSHNKKVQMHMLDLMSSIIMEGDGVTQELLDSILINLIPAHKNLNKQSFDLAKVLLKRTVQTIEACIANFFNQVLVLGRSSVSDLSEHVFDLIQELFAIDPHLLLSVMPQLEFKLKSNDGEERLAVVRLLAKLFGSKDSDLATQNRPLWQCFLGRFNDIHVPVRLESVKFASHCLMNHPDLAKDLTEYLKVRSHDPEEAIRHDVIVTIITAAKRDLALVNDQLLGFVRERTLDKRWRVRKEAMMGLAQLYKKYCLHGEAGKEAAEKVSWIKDKLLHIYYQNSIDDKLLVEKIFAQYLVPHNLETEERMKCLYYLYASLDPNAVKALNEMWKCQNMLRSHVRELLDLHKQPTSEANCSAMFGKLMTIAKNLPDPGKAQDFVKKFNQVLGDDEKLRSQLELLISPTCSCKQADVCVREIARKLANPKQPTNPFLEMVKFLLERIAPVHIDSEAISALVKLMNKSIEGTADDEEEGVSPDTAIRSGLELLKVLSFTHPTSFHSAETYESLLQCLRMEDDKVAEAAIQIFRNTGHKIETDLPQIRSTLIPILHQKAKRGTPHQAKQAVHCIHAIFTNKEVQLAQIFEPLSRSLNADVPEQLITPLVSLGHISMLAPDQFASPMKSVVANFIVKDLLMNDRSTGEKNGKLWSPDEEVSPEVLAKVQAIKLLVRWLLGMKNNQSKSANSTLRLLSAMLVSEGDLTEQKRISKSDMSRLRLAAGSAIMKLAQEPCYHEIITPEQFQLCALVINDECYQVRQIFAQKLHKALVKLLLPLEYMAIFALCAKDPVKERRAHARQCLLKNISIRREYIKQNPMATEKLLSLLPEYVVPYMIHLLAHDPDFTRSQDVDQLRDIKECLWFMLEVLMTKNENNSHAFMKKMAENIKLTKDAQSPDESKMNEKLYTVCDVALCVINSKSALCNADSPKDPVLPMKFFTQPEKDFCNDKSYISEETRVLLLTGKPKPAGVLGAVNKPLSATGRKPYVRSTGAETGSNINVNSELNPSTGNRSREQSSEAVETGVSENEENPVRIISVTPVKNIDPVKNKEINSDQTTQGNISSDRGKKRSVAAAGTENIQQKTDEKVDESGPPAPSKPRRGRRPKSESQGNATKNDDINKPLGKGRKRAAVSQESPGGLEAGNAKAPKLQDVAKKAVPAERQIDLQR
modifications: mixed with Freund's incomplete adjuvant
- day on which complete regression of the tumor was achieved [2]: 42 days
- day on which complete regression of the tumor was achieved (perianal adenocarcinoma): 35 days
- day on which complete regression of the tumor was achieved (mammary gland tumor): 13 days
